Measured values as given in US20220235126A1.

Key:
human FcRn-mmh (human) = human FcRn-mmh (human) (UniProt P55899); test: SPR, hFcRn.mmh captured, 25 C, pH 7.4; kinetics inconclusive
[1] = target: hTSLPR and hIL-7R on Baf3 cells (human) (UniProt Q9HC73)
[2] = target: hTSLPR and hIL-7R on Baf3 cells (human) (UniProt Q9HC73); remark: listed apart in the source
[3] = target: hTSLPR and hIL-7R on Baf3 cells (human) (UniProt Q9HC73); test: cell-based or functional assay

Chain of UniProt Q9HC73 (Q9HC73 23-371, chain 1 of 2): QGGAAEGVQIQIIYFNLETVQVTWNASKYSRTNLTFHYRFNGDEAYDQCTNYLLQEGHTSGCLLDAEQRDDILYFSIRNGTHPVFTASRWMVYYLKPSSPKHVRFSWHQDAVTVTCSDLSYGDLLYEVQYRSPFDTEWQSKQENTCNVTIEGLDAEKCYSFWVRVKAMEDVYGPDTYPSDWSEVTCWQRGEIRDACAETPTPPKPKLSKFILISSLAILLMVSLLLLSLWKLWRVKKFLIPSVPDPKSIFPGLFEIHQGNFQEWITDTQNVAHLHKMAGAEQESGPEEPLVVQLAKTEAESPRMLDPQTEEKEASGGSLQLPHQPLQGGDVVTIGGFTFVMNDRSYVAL
Chain of UniProt Q9HC73 (P16871 21-459, chain 2 of 2, further chain): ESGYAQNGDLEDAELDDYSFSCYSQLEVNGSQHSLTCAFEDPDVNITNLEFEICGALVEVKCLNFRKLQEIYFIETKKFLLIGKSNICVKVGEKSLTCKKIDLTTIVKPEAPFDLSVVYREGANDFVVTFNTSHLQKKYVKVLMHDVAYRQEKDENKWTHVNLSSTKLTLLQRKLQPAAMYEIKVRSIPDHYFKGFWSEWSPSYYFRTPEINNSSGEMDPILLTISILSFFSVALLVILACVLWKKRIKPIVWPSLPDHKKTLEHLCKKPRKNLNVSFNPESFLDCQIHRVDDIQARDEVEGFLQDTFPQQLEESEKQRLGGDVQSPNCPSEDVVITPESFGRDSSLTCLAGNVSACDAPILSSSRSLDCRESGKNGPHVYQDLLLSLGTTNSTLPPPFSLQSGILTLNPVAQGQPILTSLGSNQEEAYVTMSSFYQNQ
Chain of UniProt P55899 (P55899 24-297): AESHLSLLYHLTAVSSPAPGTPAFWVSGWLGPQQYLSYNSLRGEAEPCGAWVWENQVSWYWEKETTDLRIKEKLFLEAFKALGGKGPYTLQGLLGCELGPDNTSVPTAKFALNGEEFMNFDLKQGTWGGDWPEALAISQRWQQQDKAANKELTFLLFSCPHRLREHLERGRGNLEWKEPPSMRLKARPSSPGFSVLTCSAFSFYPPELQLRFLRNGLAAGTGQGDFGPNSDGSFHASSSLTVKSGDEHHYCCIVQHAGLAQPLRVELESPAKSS

REGN1932, anti-FelD1 IgG1 isotype control (antibody)
5 uM mAb Bound (RU) (human FcRn-mmh (human)): 9.1 RU

REGN1945, anti-fel d 1 IgG4 isotype control (antibody)
5 uM mAb Bound (RU) (human FcRn-mmh (human)): 8 RU

REGN4009, recombinant hTSLP.mmh (from UniProt Q969D9 29-159) (ligand)
EC50, STAT3-luciferase dose response of hTSLP mmh in BAF3/hIL7R/hTSLPR/Stat3-Luc cells [1]: 61.3 pM
EC50 of hTSLP mmh in the Stat3-Luc reporter assay (number only, curve not drawn) [2]: 75 pM

human TSLP (hTSLP) (from UniProt Q969D9 29-159) (ligand)
hTSLP EC50 [M], STAT3-Luciferase reporter assay [3]: 4.35e-11 M
